In PMC2689706:

Target: bacterially expressed GST-tagged eRF3 (UniProt P15170)
Assay: not stated; unpublished data; bacterially expressed GST-tagged eRF3 with partner translated in rabbit reticulocyte lysate

Substance	Kd [nM]
rabbit reticulocyte-lysate-translated PABPC1 (from UniProt P11940 1-636) (natural protein)	5
rabbit reticulocyte-lysate-translated hUpf1 (from UniProt Q92900 1-1129) (natural protein)	> 1000
